# Literature values, collected in publication PMC12287344.
# pKd: −log10 of the molar value.
# Molecular target: caspase-1 (Homo sapiens) (UniProt P29466)
substance,measurement,value
caspase-1 (from UniProt P29466),pKd,3.96
